What was measured:
[1] = target: human IL-2Rβ (CD122), full-length, on cells (human) (UniProt P14784); experiment: flow cytometry competition: antibody titrated against recombinant IL-2 (5 nM) binding to HEK293 cells expressing human IL-2Rβ and IL-2Rγ
[2] = target: human IL-2Rβ (CD122), full-length, on cells (human) (UniProt P14784); experiment: flow cytometry competition: antibody titrated against recombinant IL-15 (2 nM) binding to HEK293 cells expressing human IL-2Rβ and IL-2Rγ

Chain of human IL-2Rβ (CD122), full-length, on cells (human) (P14784 27-551): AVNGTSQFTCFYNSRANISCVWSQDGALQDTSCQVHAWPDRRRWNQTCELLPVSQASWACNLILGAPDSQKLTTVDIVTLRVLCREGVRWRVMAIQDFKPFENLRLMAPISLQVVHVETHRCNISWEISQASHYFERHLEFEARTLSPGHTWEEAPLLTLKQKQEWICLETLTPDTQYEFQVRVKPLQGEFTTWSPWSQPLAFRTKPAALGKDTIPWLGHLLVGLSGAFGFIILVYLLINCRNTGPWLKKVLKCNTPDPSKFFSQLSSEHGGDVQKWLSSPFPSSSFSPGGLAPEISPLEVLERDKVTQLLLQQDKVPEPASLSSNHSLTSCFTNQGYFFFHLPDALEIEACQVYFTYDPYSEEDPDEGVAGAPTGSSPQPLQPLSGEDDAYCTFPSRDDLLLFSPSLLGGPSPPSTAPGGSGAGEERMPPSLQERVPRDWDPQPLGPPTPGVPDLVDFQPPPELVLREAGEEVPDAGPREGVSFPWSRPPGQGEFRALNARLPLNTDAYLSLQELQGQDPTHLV

IC50 (read off the curve) [1]: 1 nM | IC50 (read off the curve) [2]: 0.9 nM
B1: APE14773.01 (anti-CD122 control ref ABC2) (antibody, from another filing, V domains shown)
VH: EVKLVESGGGLVQPGGSLRLSCATSGFTFSDFYMEWVRQPPGKRLEWIAASRNKANDYTTEYSASVKGRFIVSRDTSQSILYLQMNALRAEDTAIYYCARSYYRYDGMDYWGQGTSVTVSS
VL: QVVLTQSPVIMSASPGEKVTMTCSAISSVSYMYWYQQKPGSSPRLLIYDTSNLVSGVPVRFSGSGSGTSYSLTISRMEAEDAATYYCQQWNTYPYTFGGGTKLEIK
